In PMC6405639:
pIC50, pKi: −log10 of the molar value.

Columns and labels:
[1] = molecular target: Y2R_cysteine_deficient_eYFP (in HEK293 cells) (human) (UniProt P49146)
[2] = molecular target: Y2R_cysteine_deficient_eYFP (in HEK293 cells) (human) (UniProt P49146); assay: radioligand binding; displacement of 60 pM [125I]-PYY from membrane preparations (0.75 μg protein) of transiently transfected HEK293 cells; HBSS with 1% BSA, room temperature, 3 h; filtration
[3] = molecular target: Y2R_cysteine_deficient_eYFP (in HEK293 cells) (human) (UniProt P49146); remark: listed apart in the source

Y2R_cysteine_deficient_eYFP (in HEK293 cells) (human), sequence (P49146 other isoform, or with tags, fused parts or gaps): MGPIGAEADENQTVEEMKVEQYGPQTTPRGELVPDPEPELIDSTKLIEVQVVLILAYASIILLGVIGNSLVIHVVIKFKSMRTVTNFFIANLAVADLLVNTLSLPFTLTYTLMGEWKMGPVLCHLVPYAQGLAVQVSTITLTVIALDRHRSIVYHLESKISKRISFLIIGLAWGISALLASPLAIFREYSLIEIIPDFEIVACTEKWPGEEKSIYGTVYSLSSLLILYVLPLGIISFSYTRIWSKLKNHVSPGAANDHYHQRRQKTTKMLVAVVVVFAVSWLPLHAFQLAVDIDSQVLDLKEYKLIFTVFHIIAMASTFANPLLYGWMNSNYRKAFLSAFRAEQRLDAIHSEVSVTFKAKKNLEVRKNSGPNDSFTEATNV

EC50 of IP-one accumulation in HEK293 cells co-transfected with the receptor and the chimeric G protein GαΔ6qi4myr [1] | Emax of IP-one accumulation, normalised to the Y2R/NPY curve [1] | pIC50 [2] | pKi [2] | potency in the IP-one accumulation assay [3] | Substance
3.4 nM | 95% | 7.41 | 7.95 | 3.6 nM | 5(6)-TAMRA-Ahx(5-24)NPY (peptide)
4 nM | 102% |  |  |  | [K^22[(Ahx)2-biotin]Bpa^27]NPY (peptide)
